Reference: the supplement of paper PMC5998384

How the values were obtained:
[1] = tested on: HeLa Kyoto; assay: thermal stability score vs G1/S (z-score of summed log2 fold changes over temperatures); higher = more thermally stable than in G1/S
[2] = tested on: HeLa Kyoto; assay: solubility change mitosis vs G1/S (difference of NP-40 vs SDS log2 ratios) (log2 ratio difference); higher = more soluble in mitosis
[3] = tested on: HeLa Kyoto; assay: solubility in G1/S (NP-40 vs SDS abundance) (log2 ratio); higher = more soluble; conditions: cell cycle stage: G1/S
[4] = tested on: HeLa Kyoto; assay: melting temperature (median over replicates), in situ; higher = more thermally stable
[5] = cell cycle stage: early G1 (4.5 h after nocodazole release)
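For melting temperature (median over replicates), in situ in this document: HeLa Kyoto cells synchronized by double thymidine or nocodazole block, proteins quantified by TMT10plex mass spectrometry, three independent biological replicates.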
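For solubility change mitosis vs G1/S (difference of NP-40 vs SDS log2 ratios) in this document: synchronized HeLa Kyoto cells (double thymidine block for G1/S, nocodazole release for mitosis), protein amounts in NP-40 versus SDS lysates quantified by mass spectrometry, three biological replicates.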
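For solubility in G1/S (NP-40 vs SDS abundance) in this document: HeLa Kyoto cells arrested at G1/S by double thymidine block, proteins quantified by TMT10plex mass spectrometry in mild NP-40 versus SDS extracts, three biological replicates.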
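For thermal stability score vs G1/S (z-score of summed log2 fold changes over temperatures) in this document: synchronized HeLa Kyoto cells, proteins quantified by TMT10plex mass spectrometry, three biological replicates, mitosis taken 0.5 h after nocodazole release, G1/S directly after double thymidine block.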

Substance | thermal stability score [1, 5] | thermal stability score ([1]; cell cycle stage: mitosis) | solubility change mitosis (log2) [2] | solubility in G1/S (log2) [3] | melting temperature ([4]; cell cycle stage: G1/S) [°C] | melting temperature ([4]; cell cycle stage: mitosis) [°C]
MVDRLANSEANTRRISIVENCFGAAGQPLTIPGRVLIGEGVLTKLCRKKPKARQFFLFNDILVYGNIVIQKKKYNKQHIIPLENVTIDSIKDEGDLRNGWLIKTPTKSFAVYAATATEKSEWMNHINKCVTDLLSKSGKTPSNEHAAVWVPDSEATVCMRCQKAKFTPVNRRHHCRKCGFVVCGPCSEKRFLLPSQSSKPVRICDFCYDLLSAGDMATCQPARSDSYSQSLKSPLNDMSDDDDDDDSSD [PLEKHF2] | 0.212 | 0.829 | -0.0311 | 0.163 |  | 
MRGKTFRFEMQRDLVSFPLSPAVRVKLVSAGFQTAEELLEVKPSELSKEVGISKAEALETLQIIRRECLTNKPRYAGTSESHKKCTALELLEQEHTQGFIITFCSALDDILGGGVPLMKTTEICGAPGVGKTQLCMQLAVDVQIPECFGGVAGEAVFIDTEGSFMVDRVVDLATACIQHLQLIAEKHKGEEHRKALEDFTLDNILSHIYYFRCRDYTELLAQVYLLPDFLSEHSKVRLVIVDGIAFPFRHDLDDLSLRTRLLNGLAQQMISLANNHRLAVILTNQMTTKIDRNQALLVPALGESWGHAATIRLIFHWDRKQRLATLYKSPSQKECTVLFQIKPQGFRDTVVTSACSLQTEGSLSTRKRSRDPEEEL [RAD51C] | -0.288 | -0.541 | 0.0331 | 0.00866 |  | 
MSQATKRKHVVKEVLGEHIVPSDQQQIVRVLRTPGNNLHEVETAQGQRFLVSMPSKYRKNIWIKRGDFLIVDPIEEGEKVKAEISFVLCKDHVRSLQKEGFWPEAFSEVAEKHNNRNRQTQPELPAEPQLSGEESSSEDDSDLFVNTNRRQYHESEEESEEEEAA [EIF1AD] |  |  | -0.0155 | 0.37 | 53.5 | 53.3
MEGGGGIPLETLKEESQSRHVLPASFEVNSLQKSNWGFLLTGLVGGTLVAVYAVATPFVTPALRKVCLPFVPATTKQIENVVKMLRCRRGSLVDIGSGDGRIVIAAAKKGFTAVGYELNPWLVWYSRYRAWREGVHGSAKFYISDLWKVTFSQYSNVVIFGVPQMMLQLEKKLERELEDDARVIACRFPFPHWTPDHVTGEGIDTVWAYDASTFRGREKRPCTSMHFQLPIQA [FAM173B] |  |  | -0.0503 | -0.208 | 54.7 | 
MQAALEVTARYCGRELEQYGQCVAAKPESWQRDCHYLKMSIAQCTSSHPIIRQIRQACAQPFEAFEECLRQNEAAVGNCAEHMRRFLQCAEQVQPPRSPATVEAQPLPAS [CHCHD5] |  |  | 0.0671 | -0.11 | 53.5 | 50.5
MAQSINITELNLPQLEMLKNQLDQEVEFLSTSIAQLKVVQTKYVEAKDCLNVLNKSNEGKELLVPLTSSMYVPGKLHDVEHVLIDVGTGYYVEKTAEDAKDFFKRKIDFLTKQMEKIQPALQEKHAMKQAVMEMMSQKIQQLTALGAAQATAKA [PFDN5] |  |  | 0.784 | -0.425 | 54.4 | 53.1
MGFLRRLIYRRRPMIYVESSEESSDEQPDEVESPTQSQDSTPAEEREDEGASAAQGQEPEADSQELVQPKTGCELGDGPDTKRVCLRNEEQMKLPAEGPEPEADSQEQVHPKTGCERGDGPDVQELGLPNPEEVKTPEEDEGQSQP [PAGE1] |  |  | 0.603 | -0.617 | 53.3 | 51.6
MAAAAAGAGSGPWAAQEKQFPPALLSFFIYNPRFGPREGQEENKILFYHPNEVEKNEKIRNVGLCEAIVQFTRTFSPSKPAKSLHTQKNRQFFNEPEENFWMVMVVRNPIIEKQSKDGKPVIEYQEEELLDKVYSSVLRQCYSMYKLFNGTFLKAMEDGGVKLLKERLEKFFHRYLQTLHLQSCDLLDIFGGISFFPLDKMTYLKIQSFINRMEESLNIVKYTAFLYNDQLIWSGLEQDDMRILYKYLTTSLFPRHIEPELAGRDSPIRAEMPGNLQHYGRFLTGPLNLNDPDAKCRFPKIFVNTDDTYEELHLIVYKAMSAAVCFMIDASVHPTLDFCRRLDSIVGPQLTVLASDICEQFNINKRMSGSEKEPQFKFIYFNHMNLAEKSTVHMRKTPSVSLTSVHPDLMKILGDINSDFTRVDEDEEIIVKAMSDYWVVGKKSDRRELYVILNQKNANLIEVNEEVKKLCATQFNNIFFLD [CCZ1] |  |  | -0.169 | 0.0726 | 50.9 | 51.8
ABTB2 |  |  | -0.181 | 0.00296 |  | 48.8
